Assay [1] has as its target EBOV GPCL (cleaved GP) (Ebola virus (EBOV)) (UniProt Q05320).
Assay [2] concerns the target BDBV GP on rVSV particles (Bundibugyo virus (BDBV)). Kind of assay: cell-based or functional assay.
Assay [3] deals with EBOV GP on rVSV particles (Ebola virus (EBOV)) (UniProt Q05320). Kind of assay: cell-based or functional assay.
The target in assay [4] is GP of authentic (wild-type) BDBV (Bundibugyo virus (BDBV)). Kind of assay: cell-based or functional assay.
Assay [5] deals with GP of authentic (wild-type) EBOV (Ebola virus (EBOV)) (UniProt P87666). Briefly: cell-based or functional assay.
Assay [6] has as its target GP of authentic (wild-type) SUDV (Sudan virus (SUDV)) (UniProt Q66814). Kind of assay: cell-based or functional assay.
Assay [7] addresses SUDV GP on rVSV particles (Sudan virus (SUDV)) (UniProt Q66814). Briefly: cell-based or functional assay.
Assay [8] addresses TAFV GP on VSV pseudotype particles (Tai Forest virus (TAFV)) (UniProt Q66810). Kind of assay: cell-based or functional assay.

The text below walks through data of patent publication US20180244758A1.

Sequence of TAFV GP on VSV pseudotype particles (Tai Forest virus (TAFV)) (Q66810 33-676): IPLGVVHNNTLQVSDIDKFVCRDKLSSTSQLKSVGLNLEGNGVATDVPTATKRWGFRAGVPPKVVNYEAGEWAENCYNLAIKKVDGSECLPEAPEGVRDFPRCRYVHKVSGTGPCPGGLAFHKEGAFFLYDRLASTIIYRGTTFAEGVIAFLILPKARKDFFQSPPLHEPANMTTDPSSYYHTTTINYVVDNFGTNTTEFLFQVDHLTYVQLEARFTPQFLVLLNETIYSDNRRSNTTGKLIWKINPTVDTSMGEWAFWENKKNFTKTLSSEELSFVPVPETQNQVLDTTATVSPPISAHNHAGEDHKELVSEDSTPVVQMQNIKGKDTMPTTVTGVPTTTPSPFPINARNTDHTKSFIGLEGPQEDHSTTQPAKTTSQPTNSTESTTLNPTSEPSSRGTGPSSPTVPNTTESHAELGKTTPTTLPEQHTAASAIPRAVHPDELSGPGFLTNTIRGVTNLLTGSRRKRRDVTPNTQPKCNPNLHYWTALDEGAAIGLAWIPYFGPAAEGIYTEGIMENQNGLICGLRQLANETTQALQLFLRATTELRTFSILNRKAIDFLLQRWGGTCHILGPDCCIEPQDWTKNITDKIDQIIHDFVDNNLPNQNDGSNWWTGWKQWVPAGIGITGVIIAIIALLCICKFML
Sequence of GP of authentic (wild-type) SUDV (Sudan virus (SUDV)) (Q66814 33-676): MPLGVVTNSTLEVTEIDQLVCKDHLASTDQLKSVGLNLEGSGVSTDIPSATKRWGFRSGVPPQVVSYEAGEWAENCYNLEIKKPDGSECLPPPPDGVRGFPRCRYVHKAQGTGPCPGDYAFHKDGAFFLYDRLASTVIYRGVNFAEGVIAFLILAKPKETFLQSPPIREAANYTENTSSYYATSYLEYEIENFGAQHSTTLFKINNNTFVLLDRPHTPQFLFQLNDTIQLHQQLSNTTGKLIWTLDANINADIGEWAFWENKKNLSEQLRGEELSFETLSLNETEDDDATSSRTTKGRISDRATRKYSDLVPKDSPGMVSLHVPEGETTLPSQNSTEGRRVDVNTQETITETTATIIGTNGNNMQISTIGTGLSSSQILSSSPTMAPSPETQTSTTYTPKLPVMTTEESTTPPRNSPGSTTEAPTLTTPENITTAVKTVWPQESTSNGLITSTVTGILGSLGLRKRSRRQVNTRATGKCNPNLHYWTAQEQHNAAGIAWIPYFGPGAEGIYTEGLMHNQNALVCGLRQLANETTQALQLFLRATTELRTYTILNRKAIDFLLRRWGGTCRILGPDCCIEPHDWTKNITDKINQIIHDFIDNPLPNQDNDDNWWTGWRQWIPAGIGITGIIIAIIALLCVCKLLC
Sequence of SUDV GP on rVSV particles (Sudan virus (SUDV)) (Q66814 33-676): as above
Sequence of EBOV GP on rVSV particles (Ebola virus (EBOV)) (Q05320 33-676): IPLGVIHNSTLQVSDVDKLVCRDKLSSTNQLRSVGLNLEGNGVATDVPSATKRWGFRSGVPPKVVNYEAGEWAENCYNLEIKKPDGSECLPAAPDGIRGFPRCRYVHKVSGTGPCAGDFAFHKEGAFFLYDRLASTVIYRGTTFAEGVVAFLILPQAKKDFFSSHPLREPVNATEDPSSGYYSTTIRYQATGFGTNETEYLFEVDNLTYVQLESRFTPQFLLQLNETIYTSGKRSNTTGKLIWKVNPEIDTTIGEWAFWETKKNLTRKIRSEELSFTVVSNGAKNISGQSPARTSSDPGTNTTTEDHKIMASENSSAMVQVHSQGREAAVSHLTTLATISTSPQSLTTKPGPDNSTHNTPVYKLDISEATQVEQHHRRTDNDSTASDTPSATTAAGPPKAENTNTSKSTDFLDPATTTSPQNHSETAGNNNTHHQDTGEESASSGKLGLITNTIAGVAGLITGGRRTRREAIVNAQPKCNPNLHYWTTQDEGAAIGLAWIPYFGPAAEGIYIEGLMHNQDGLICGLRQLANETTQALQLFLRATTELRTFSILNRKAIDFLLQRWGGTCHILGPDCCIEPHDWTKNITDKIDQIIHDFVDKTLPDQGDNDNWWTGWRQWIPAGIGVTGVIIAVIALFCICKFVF
Sequence of GP of authentic (wild-type) EBOV (Ebola virus (EBOV)) (P87666 33-676): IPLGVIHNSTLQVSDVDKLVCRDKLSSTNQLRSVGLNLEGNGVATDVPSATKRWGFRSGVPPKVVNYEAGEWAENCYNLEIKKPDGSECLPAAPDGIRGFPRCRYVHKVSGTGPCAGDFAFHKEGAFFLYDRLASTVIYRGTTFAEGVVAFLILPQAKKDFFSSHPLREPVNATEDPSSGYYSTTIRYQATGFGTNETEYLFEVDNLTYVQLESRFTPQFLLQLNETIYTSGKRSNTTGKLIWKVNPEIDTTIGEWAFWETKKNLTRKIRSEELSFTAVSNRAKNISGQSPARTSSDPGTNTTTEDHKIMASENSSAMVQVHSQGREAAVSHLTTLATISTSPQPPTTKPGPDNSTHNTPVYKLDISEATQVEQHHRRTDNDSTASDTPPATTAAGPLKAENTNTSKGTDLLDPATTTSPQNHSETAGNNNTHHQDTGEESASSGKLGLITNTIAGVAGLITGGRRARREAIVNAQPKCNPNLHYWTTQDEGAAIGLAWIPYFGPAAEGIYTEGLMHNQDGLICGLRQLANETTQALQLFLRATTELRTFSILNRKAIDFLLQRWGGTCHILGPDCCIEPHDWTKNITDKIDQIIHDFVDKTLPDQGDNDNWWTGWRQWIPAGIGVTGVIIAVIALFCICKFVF
Sequence of EBOV GPCL (cleaved GP) (Ebola virus (EBOV)) (Q05320 33-190 limits assumed, chain 1 of 2): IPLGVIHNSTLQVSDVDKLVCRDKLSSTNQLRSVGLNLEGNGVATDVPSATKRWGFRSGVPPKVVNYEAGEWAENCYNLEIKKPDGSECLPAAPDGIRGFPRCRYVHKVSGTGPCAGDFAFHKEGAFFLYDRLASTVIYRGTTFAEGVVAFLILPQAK
Sequence of EBOV GPCL (cleaved GP) (Ebola virus (EBOV)) (Q05320 502-637 limits assumed, chain 2 of 2): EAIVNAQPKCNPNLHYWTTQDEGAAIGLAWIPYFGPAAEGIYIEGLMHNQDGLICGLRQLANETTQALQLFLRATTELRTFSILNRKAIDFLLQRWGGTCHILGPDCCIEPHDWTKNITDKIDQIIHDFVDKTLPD

B1: mAb PE-87 (antibody, V domains shown)
VH: QVQLVQSGVTLVQPGGSLRVSCAASGFTFSSYAMSWVRQAPGKGLEWVSAISGLGGSTYYADSVKGRFTISRDNSKNTLYLQMNSLRAEDTAVYYCAKDHRVWAAGYHFDYWGQGALVTVSS
VL: DIVLTQSPSTLSASVGDRVTITCRASQSISSWLAWYQQKPGEAPKLLISDASSLESGVPSRFSGSGSGTEFTLTISSLQPDDFATYYCQQYYSSPTFGGGTKVEIK
Broadly, the Kd is the concentration at which binding is half-saturated. Low readings indicate higher affinity, high ones lower affinity. Regarding B1, the Kd in assay [1] is < 1 pM.

B2: mAb PE-64 (antibody, V domains shown)
VH: EVQLVESGGGLVKPGGSLRLSCAASGFTFSNAWMSWVRQAPGKGLEWVGRIKSKTDGGTIDYAAPVKGRFTISRDDSKNTVYLQMTSLKTEDTAVYYCTTYTEDMRYFDWLLRGGETFDYWGQGTLVTVSS
VL: DIRLTQSPSSLSASVGDRVTITCRASHYISTYLNWYQQKPGKAPKLLIYAASNLQSGVPSRFSGSGFGTDFSLTISSLQPEDFATYHCQQSYSTPGRYTFGQGTKVEIK
As to B2, the rVSV-GP neutralization IC50 in assay [2] came out at 0.4 nM; in assay [3] it was 2.5 nM; in assay [7], 40 nM; in assay [8], 8 nM. Further, the Authentic virus neutralization IC50 in assay [4] came to 1.5 nM; in assay [5] it was 0.6 nM; in assay [6], 120 nM.
